Consider eight molecules from patent US9937235B2, “Lipidated peptides as anti-obesity agents” (USTAV ORGANICKE CHEMIE A BIOCHEMIE AKADEMIE VED CR, V.V.I, priority 2012, dated 2018).

One may read the Ki as a dissociation constant, usually derived from enzyme kinetics or from competition with a known ligand. Low values mean tighter binding, high ones weaker binding.

Experiment [1] addresses T1, rat PrRP receptor in RC-4B/C cells (rat, UniProt Q64121 1-370).
T1 construct: whole, on cells; also called the rat receptor; GPR10
T1 sequence (looked up): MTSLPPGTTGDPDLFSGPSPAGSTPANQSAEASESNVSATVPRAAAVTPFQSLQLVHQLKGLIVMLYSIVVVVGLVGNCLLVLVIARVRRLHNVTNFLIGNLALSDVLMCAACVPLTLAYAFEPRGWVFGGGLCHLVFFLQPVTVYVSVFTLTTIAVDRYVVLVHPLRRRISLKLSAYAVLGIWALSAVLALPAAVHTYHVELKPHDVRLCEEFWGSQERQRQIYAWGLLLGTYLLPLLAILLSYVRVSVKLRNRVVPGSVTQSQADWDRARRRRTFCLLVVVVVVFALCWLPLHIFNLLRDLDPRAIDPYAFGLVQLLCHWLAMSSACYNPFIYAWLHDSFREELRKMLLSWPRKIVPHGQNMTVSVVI
As to the kind of experiment: competition with 125I-rat PrRP31 on RC-4B/C cells. The procedure:
(§1) The rat pituitary cell line RC-4B/C (ATCC, Manassas, USA) was grown on 24-well plates which had their bottom coated with polyethyleneimine. The cells were grown to the optimal density of 300-450 thousand per well.
(§2) Plates were incubated for 60 minutes at room temperature. After incubation, the cells were solubilized in 0.1 mol/l solution of NaOH and the radioactivity bound to the cells was counted using a γ-counter. The experiments were performed in duplicate and repeated at least three times.

Experiment [2] concerns the target T1, rat PrRP receptor in RC-4B/C cells. As to the kind of experiment: competition with 125I-rat PrRP31 on RC-4B/C cells; Ki by Cheng-Prusoff. How it is done:
as §1, §2
For evaluation of competitive binding experiments, the program Graph Pad Prism Software (San Diego, Calif., USA) was used. A method of nonlinear regression assuming one-site binding was used.

Where no end group is shown, it is not given here. [ ]: non-standard residue; d: D form. The star is where a group is joined. 1Nal = N[C@@H](Cc1cccc2ccccc12)C(=O)O; Palmitoyl = CCCCCCCCCCCCCCCC(=O)*; Myristoyl = CCCCCCCCCCCCCC(=O)*; Nle = CCCC[C@H](N)C(=O)O; Octanoyl = CCCCCCCC(=O)*; Dap = NC[C@H](N)C(=O)O

B1: analog no. 10 (peptide)
peptide: Myristoyl-TPDINPAWYTGRGIRPVGRF-NH2
SMILES: CCCCCCCCCCCCCC(=O)N[C@H](C(=O)N1CCC[C@H]1C(=O)N[C@@H](CC(=O)O)C(=O)N[C@H](C(=O)N[C@@H](CC(N)=O)C(=O)N1CCC[C@H]1C(=O)N[C@@H](C)C(=O)N[C@@H](Cc1c[nH]c2ccccc12)C(=O)N[C@@H](Cc1ccc(O)cc1)C(=O)N[C@H](C(=O)NCC(=O)N[C@@H](CCCNC(=N)N)C(=O)NCC(=O)N[C@H](C(=O)N[C@@H](CCCNC(=N)N)C(=O)N1CCC[C@H]1C(=O)N[C@H](C(=O)NCC(=O)N[C@@H](CCCNC(=N)N)C(=O)N[C@@H](Cc1ccccc1)C(N)=O)C(C)C)[C@@H](C)CC)[C@@H](C)O)[C@@H](C)CC)[C@@H](C)O
notes: myristoylated rat PrRP20
In the case of B1, in experiment [1], the “% of PrRP31 binding” value worked out at 632%. Further, the Ki in experiment [2] turned out to be 0.78 nM.

B2: analog no. 5 (peptide)
peptide: [Dap](Myristoyl)RAHQHS[Nle]ETRTPDINPAWYTGRGIRPVGRF-NH2
modifications: N-terminus assumed
SMILES: CCCCCCCCCCCCCC(=O)NC[C@H](N)C(=O)N[C@@H](CCCNC(=N)N)C(=O)N[C@@H](C)C(=O)N[C@@H](Cc1c[nH]cn1)C(=O)N[C@@H](CCC(N)=O)C(=O)N[C@@H](Cc1c[nH]cn1)C(=O)N[C@@H](CO)C(=O)N[C@@H](CCCC)C(=O)N[C@@H](CCC(=O)O)C(=O)N[C@H](C(=O)N[C@@H](CCCNC(=N)N)C(=O)N[C@H](C(=O)N1CCC[C@H]1C(=O)N[C@@H](CC(=O)O)C(=O)N[C@H](C(=O)N[C@@H](CC(N)=O)C(=O)N1CCC[C@H]1C(=O)N[C@@H](C)C(=O)N[C@@H](Cc1c[nH]c2ccccc12)C(=O)N[C@@H](Cc1ccc(O)cc1)C(=O)N[C@H](C(=O)NCC(=O)N[C@@H](CCCNC(=N)N)C(=O)NCC(=O)N[C@H](C(=O)N[C@@H](CCCNC(=N)N)C(=O)N1CCC[C@H]1C(=O)N[C@H](C(=O)NCC(=O)N[C@@H](CCCNC(=N)N)C(=O)N[C@@H](Cc1ccccc1)C(N)=O)C(C)C)[C@@H](C)CC)[C@@H](C)O)[C@@H](C)CC)[C@@H](C)O)[C@@H](C)O
notes: analog of rat PrRP31; also called [Dpr(myr)^1]PrRP31; myristoylated analog [Dpr^1]PrRP31 (No. 5)
Turning to B2, the “% of PrRP31 binding” value in experiment [1] was determined as 601%. For the same molecule, the Ki in experiment [2] was 0.82 nM.

B3: analog no. 6 (peptide)
peptide: [Dap](Palmitoyl)RAHQHS[Nle]ETRTPDINPAWYTGRGIRPVGRF-NH2
modifications: N-terminus assumed
SMILES: CCCCCCCCCCCCCCCC(=O)NC[C@H](N)C(=O)N[C@@H](CCCNC(=N)N)C(=O)N[C@@H](C)C(=O)N[C@@H](Cc1c[nH]cn1)C(=O)N[C@@H](CCC(N)=O)C(=O)N[C@@H](Cc1c[nH]cn1)C(=O)N[C@@H](CO)C(=O)N[C@@H](CCCC)C(=O)N[C@@H](CCC(=O)O)C(=O)N[C@H](C(=O)N[C@@H](CCCNC(=N)N)C(=O)N[C@H](C(=O)N1CCC[C@H]1C(=O)N[C@@H](CC(=O)O)C(=O)N[C@H](C(=O)N[C@@H](CC(N)=O)C(=O)N1CCC[C@H]1C(=O)N[C@@H](C)C(=O)N[C@@H](Cc1c[nH]c2ccccc12)C(=O)N[C@@H](Cc1ccc(O)cc1)C(=O)N[C@H](C(=O)NCC(=O)N[C@@H](CCCNC(=N)N)C(=O)NCC(=O)N[C@H](C(=O)N[C@@H](CCCNC(=N)N)C(=O)N1CCC[C@H]1C(=O)N[C@H](C(=O)NCC(=O)N[C@@H](CCCNC(=N)N)C(=O)N[C@@H](Cc1ccccc1)C(N)=O)C(C)C)[C@@H](C)CC)[C@@H](C)O)[C@@H](C)CC)[C@@H](C)O)[C@@H](C)O
notes: analog of rat PrRP31; also called [Dpr(palm)^1]PrRP31
On to B3, for which the “% of PrRP31 binding” value in experiment [1] is 1070%. Further, affinity in experiment [2] was put at a Ki of 0.46 nM.

B4: analog no. 1 (peptide)
peptide: [Dap]RAHQHS[Nle]ETRTPDINPAWYTGRGIRPVGRF-NH2
modifications: N-terminus assumed
SMILES: CCCC[C@H](NC(=O)[C@H](CO)NC(=O)[C@H](Cc1c[nH]cn1)NC(=O)[C@H](CCC(N)=O)NC(=O)[C@H](Cc1c[nH]cn1)NC(=O)[C@H](C)NC(=O)[C@H](CCCNC(=N)N)NC(=O)[C@@H](N)CN)C(=O)N[C@@H](CCC(=O)O)C(=O)N[C@H](C(=O)N[C@@H](CCCNC(=N)N)C(=O)N[C@H](C(=O)N1CCC[C@H]1C(=O)N[C@@H](CC(=O)O)C(=O)N[C@H](C(=O)N[C@@H](CC(N)=O)C(=O)N1CCC[C@H]1C(=O)N[C@@H](C)C(=O)N[C@@H](Cc1c[nH]c2ccccc12)C(=O)N[C@@H](Cc1ccc(O)cc1)C(=O)N[C@H](C(=O)NCC(=O)N[C@@H](CCCNC(=N)N)C(=O)NCC(=O)N[C@H](C(=O)N[C@@H](CCCNC(=N)N)C(=O)N1CCC[C@H]1C(=O)N[C@H](C(=O)NCC(=O)N[C@@H](CCCNC(=N)N)C(=O)N[C@@H](Cc1ccccc1)C(N)=O)C(C)C)[C@@H](C)CC)[C@@H](C)O)[C@@H](C)CC)[C@@H](C)O)[C@@H](C)O
notes: analog of rat PrRP31; also called [Dpr^1]PrRP31
With B4, in experiment [1], the “% of PrRP31 binding” value amounted to 132%. This molecule displayed an inhibition constant (Ki) in experiment [2] of 3.74 nM.

B5: analog no. 9 (peptide)
peptide: [Dap](Myristoyl)RAHQHS[Nle]ETRTPDINPAWYTGRGIRPVGR[1Nal]-NH2
modifications: N-terminus assumed
SMILES: CCCCCCCCCCCCCC(=O)NC[C@H](N)C(=O)N[C@@H](CCCNC(=N)N)C(=O)N[C@@H](C)C(=O)N[C@@H](Cc1c[nH]cn1)C(=O)N[C@@H](CCC(N)=O)C(=O)N[C@@H](Cc1c[nH]cn1)C(=O)N[C@@H](CO)C(=O)N[C@@H](CCCC)C(=O)N[C@@H](CCC(=O)O)C(=O)N[C@H](C(=O)N[C@@H](CCCNC(=N)N)C(=O)N[C@H](C(=O)N1CCC[C@H]1C(=O)N[C@@H](CC(=O)O)C(=O)N[C@H](C(=O)N[C@@H](CC(N)=O)C(=O)N1CCC[C@H]1C(=O)N[C@@H](C)C(=O)N[C@@H](Cc1c[nH]c2ccccc12)C(=O)N[C@@H](Cc1ccc(O)cc1)C(=O)N[C@H](C(=O)NCC(=O)N[C@@H](CCCNC(=N)N)C(=O)NCC(=O)N[C@H](C(=O)N[C@@H](CCCNC(=N)N)C(=O)N1CCC[C@H]1C(=O)N[C@H](C(=O)NCC(=O)N[C@@H](CCCNC(=N)N)C(=O)N[C@@H](Cc1cccc2ccccc12)C(N)=O)C(C)C)[C@@H](C)CC)[C@@H](C)O)[C@@H](C)CC)[C@@H](C)O)[C@@H](C)O
notes: analog of rat PrRP31; also called myristoylated analog [Dpr^1 Nal^31]PrRP31 (No. 9)
Turning to B5, the “% of PrRP31 binding” value in experiment [1] is 167%. The same molecule displayed a Ki in experiment [2] of 2.95 nM.

B6: analog no. 7 (peptide)
peptide: [Dap]RAHQHS[Nle]ETRTPDINPAWYTGRGIRPVGR[1Nal]-NH2
modifications: N-terminus assumed
SMILES: CCCC[C@H](NC(=O)[C@H](CO)NC(=O)[C@H](Cc1c[nH]cn1)NC(=O)[C@H](CCC(N)=O)NC(=O)[C@H](Cc1c[nH]cn1)NC(=O)[C@H](C)NC(=O)[C@H](CCCNC(=N)N)NC(=O)[C@@H](N)CN)C(=O)N[C@@H](CCC(=O)O)C(=O)N[C@H](C(=O)N[C@@H](CCCNC(=N)N)C(=O)N[C@H](C(=O)N1CCC[C@H]1C(=O)N[C@@H](CC(=O)O)C(=O)N[C@H](C(=O)N[C@@H](CC(N)=O)C(=O)N1CCC[C@H]1C(=O)N[C@@H](C)C(=O)N[C@@H](Cc1c[nH]c2ccccc12)C(=O)N[C@@H](Cc1ccc(O)cc1)C(=O)N[C@H](C(=O)NCC(=O)N[C@@H](CCCNC(=N)N)C(=O)NCC(=O)N[C@H](C(=O)N[C@@H](CCCNC(=N)N)C(=O)N1CCC[C@H]1C(=O)N[C@H](C(=O)NCC(=O)N[C@@H](CCCNC(=N)N)C(=O)N[C@@H](Cc1cccc2ccccc12)C(N)=O)C(C)C)[C@@H](C)CC)[C@@H](C)O)[C@@H](C)CC)[C@@H](C)O)[C@@H](C)O
notes: analog of rat PrRP31
With B6, in experiment [1], the “% of PrRP31 binding” value is 8%. For the same molecule, the Ki in experiment [2] was 60.1 nM.

B7: analog no. 8 (peptide)
peptide: [Dap](Octanoyl)RAHQHS[Nle]ETRTPDINPAWYTGRGIRPVGR[1Nal]-NH2
modifications: N-terminus assumed
SMILES: CCCCCCCC(=O)NC[C@H](N)C(=O)N[C@@H](CCCNC(=N)N)C(=O)N[C@@H](C)C(=O)N[C@@H](Cc1c[nH]cn1)C(=O)N[C@@H](CCC(N)=O)C(=O)N[C@@H](Cc1c[nH]cn1)C(=O)N[C@@H](CO)C(=O)N[C@@H](CCCC)C(=O)N[C@@H](CCC(=O)O)C(=O)N[C@H](C(=O)N[C@@H](CCCNC(=N)N)C(=O)N[C@H](C(=O)N1CCC[C@H]1C(=O)N[C@@H](CC(=O)O)C(=O)N[C@H](C(=O)N[C@@H](CC(N)=O)C(=O)N1CCC[C@H]1C(=O)N[C@@H](C)C(=O)N[C@@H](Cc1c[nH]c2ccccc12)C(=O)N[C@@H](Cc1ccc(O)cc1)C(=O)N[C@H](C(=O)NCC(=O)N[C@@H](CCCNC(=N)N)C(=O)NCC(=O)N[C@H](C(=O)N[C@@H](CCCNC(=N)N)C(=O)N1CCC[C@H]1C(=O)N[C@H](C(=O)NCC(=O)N[C@@H](CCCNC(=N)N)C(=O)N[C@@H](Cc1cccc2ccccc12)C(N)=O)C(C)C)[C@@H](C)CC)[C@@H](C)O)[C@@H](C)CC)[C@@H](C)O)[C@@H](C)O
notes: analog of rat PrRP31
In the case of B7, the “% of PrRP31 binding” value in experiment [1] amounted to 13%. The Ki in experiment [2] is 39.2 nM.
For the molecule SRAHQHSMETRTPDINPAWYTGRGIRPVGRF-NH2 (also called prolactin-releasing peptide) [Rat PrRP31], the “% of PrRP31 binding” value in experiment [1] is 100%. The molecule further returned a Ki in experiment [2] of 4.93 nM.
